Earlier results in patent publication US7759315B2, “Treatment of inflammatory conditions of the intestine” (CSL Behring AG, priority 2005, dated 2010).
Non-standard residues stand in square brackets, D forms with d. No end group written: not given here. Orn = NCCC[C@H](N)C(=O)O; Aib = CC(C)(N)C(=O)O

target: T1, LCAT (Homo sapiens, UniProt P04180)
T1 sequence (P04180 25-440): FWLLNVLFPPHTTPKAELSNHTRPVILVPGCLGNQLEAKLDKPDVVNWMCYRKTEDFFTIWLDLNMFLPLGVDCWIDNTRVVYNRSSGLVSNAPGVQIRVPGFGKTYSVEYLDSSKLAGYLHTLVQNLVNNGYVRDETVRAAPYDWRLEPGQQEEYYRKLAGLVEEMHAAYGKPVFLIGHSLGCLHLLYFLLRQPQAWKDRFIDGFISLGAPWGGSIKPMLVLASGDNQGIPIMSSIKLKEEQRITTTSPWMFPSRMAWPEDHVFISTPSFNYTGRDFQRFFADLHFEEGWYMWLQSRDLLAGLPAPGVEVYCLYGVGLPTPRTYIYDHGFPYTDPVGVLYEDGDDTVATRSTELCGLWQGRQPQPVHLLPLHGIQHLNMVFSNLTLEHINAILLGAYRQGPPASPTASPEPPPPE

Substance | ACTIVITY (%) LCAT [%]
PELDEFREKLNEXLEALKQKLK (PELDEFREKLNE[Aib]LEALKQKLK; not fully specified (C-terminus)) [Peptide 117] | 0
PVLELWENLLERLLDALQKKLK [Peptide 176] | 11
PVLDEFRELYNEXLEALKQKLK (PVLDEFRELYNE[Aib]LEALKQKLK; not fully specified (C-terminus)) [Peptide 92] | 5
PVLDLFRELLEELOQOLO* (PVLDLFRELLEEL[Orn]Q[Orn]L[Orn]; not fully specified (N-terminus, C-terminus); printed as PVLDLFRELLEELOQOLO*) [Peptide 211] | 45
PVLDLFOELLEELOQOLK* (PVLDLF[Orn]ELLEEL[Orn]Q[Orn]LK; not fully specified (N-terminus, C-terminus); printed as PVLDLFOELLEELOQOLK*) [Peptide 212] | 43
PVLELFDNLLERLLDALQKKLK [Peptide 179] | 8
PVLDLFRNLLEELLKALEQKLK [Peptide 57] | 18
PVLELFENLLERLLELLNKKLK [Peptide 175] | 13
PVLDLFRELGNELLEALKQKLK [Peptide 9] | 83
PLLELFKELLQELLEALKQKLK [Peptide 23] | 54
PVLDEFWEKLNEXLEALKQKLK (PVLDEFWEKLNE[Aib]LEALKQKLK; not fully specified (C-terminus)) [Peptide 73] | 10
GVLDLFRELLNELLEALKQKLKK [Peptide 2] | 105
PVLELFENLLEKLLDALQKKLK [Peptide 169] | 17
AVLELFENLLERLLDALQKKLK [Peptide 153] | 49
pVLDLFRELLNELLEALKQKLK [Peptide 21] | 57
~~LDEFREKLNEXLEALKQKLK (LDEFREKLNE[Aib]LEALKQKLK; not fully specified (C-terminus); printed as ~~LDEFREKLNEXLEALKQKLK) [Peptide 82] | 8
PVLELFENLLEOLLDALQOOLO (PVLELFENLLE[Orn]LLDALQ[Orn][Orn]L[Orn]) [Peptide 170] | 17
PVLDLFRELGEELKQKLK* (not fully specified (N-terminus, C-terminus); printed as PVLDLFRELGEELKQKLK*) [Peptide 227] | 0
pVLDLFRELLNEGLEALKQKLK ([dP]VLDLFRELLNEGLEALKQKLK; not fully specified (C-terminus); printed as pVLDLFRELLNEGLEALKQKLK) [Peptide 19] | 58
PVLDLFRELLNELLELLKQKLK [Peptide 127] | 47
DWFKAFYDKFFEKFKEFF [Peptide 247] | 3
PVLDEFREKLNEELEXLKQKLK (PVLDEFREKLNEELE[Aib]LKQKLK; not fully specified (C-terminus)) [Peptide 120] | 0
GVLELFLNLLERLLDALQKKLK [Peptide 177] | 10

Substance | ACTIVITY (%) LCAT [%]
pVLDLFRELLNELLEALKQKLKK ([dP]VLDLFRELLNELLEALKQKLKK; not fully specified (C-terminus); printed as pVLDLFRELLNELLEALKQKLKK) [Peptide 5] | 90
PVLDEFREKLNEXLEALEQKLK (PVLDEFREKLNE[Aib]LEALEQKLK) [Peptide 118] | 0
PVLDLFRELLNELLEALKQKKK [Peptide 56] | 18
LVLDLFRELLNELLEALKQKLK [Peptide 59] | 17
PVLDAFRELAEALAQLKK [Peptide 225] | 1
PVLDEFREKLNELXEALKQKLK (PVLDEFREKLNEL[Aib]EALKQKLK) [Peptide 71] | 11
PVLDLFREKLNEELEALKQKLK [Peptide 106] | 0
PVLELFENLGERLLDALQKKLK [Peptide 151] | 55
PKLDEFREKLNEXLEALKQKLK (PKLDEFREKLNE[Aib]LEALKQKLK; not fully specified (C-terminus)) [Peptide 115] | 0
PVLDEFREKLNEXXEALKQKLK (PVLDEFREKLNE[Aib][Aib]EALKQKLK; not fully specified (C-terminus)) [Peptide 110] | 0
AVLDLFRELLEELKQKLK* (not fully specified (N-terminus, C-terminus); printed as AVLDLFRELLEELKQKLK*) [Peptide 203] | 66
PALELFKDLLEELRQKLR* (not fully specified (N-terminus, C-terminus); printed as PALELFKDLLEELRQKLR*) [Peptide 202] | 70
AVLDLFRELLNELLEALKQKLK [Peptide 29] | 39
~~~DEFREKLNEXLEALKQKLK (DEFREKLNE[Aib]LEALKQKLK; not fully specified (C-terminus); printed as ~~~DEFREKLNEXLEALKQKLK) [Peptide 90] | 6
PVLDEFRELLNEELEALKQKAK (PVLDEFRELLNEELEALKQKLK) [Peptide 103] | 1
PVLDLFREKLNELLEALKQKLK [Peptide 33] | 33
VVLDLFRELLNELLEALKQKLK [Peptide 53] | 19
PLLDLFKELLEELKQKLK* (not fully specified (N-terminus, C-terminus); printed as PLLDLFKELLEELKQKLK*) [Peptide 201] | 74
PVLELFERLLDELLNALQKKLK [Peptide 86] | 7
DVLDLFRELLEELKQKLK* (not fully specified (N-terminus, C-terminus); printed as DVLDLFRELLEELKQKLK*) [Peptide 221] | 12
GVLDLFRELLNELLEALKQKLK [Peptide 18] | 58
PVLDEFRELLKEXLEALKQKLK (PVLDEFRELLKE[Aib]LEALKQKLK; not fully specified (C-terminus)) [Peptide 68] | 14

Continued, values first:

ACTIVITY (%) LCAT [%] | Substance
24 | PVLDLFRELLNELWQKLK [Peptide 219]
16 | PVLELFENLLEKLLDLLQKKLK [Peptide 171]
5 | PVLDEFREKLNEXLKALKQKLK (PVLDEFREKLNE[Aib]LKALKQKLK; not fully specified (C-terminus)) [Peptide 93]
8 | PVLDAFRELLEALLQLKK [Peptide 222]
9 | PVLDLFERLLNELLEALQKKLK [Peptide 80]
100 | PVLDLLRELLEELKQKLK* (not fully specified (N-terminus, C-terminus); printed as PVLDLLRELLEELKQKLK*) [Peptide 191]
8 | PVLELFDNLLDKLLDALQKKLR [Peptide 180]
39 | pVLDLFRELLEELKQKLK* ([dP]VLDLFRELLEELKQKLK; not fully specified (N-terminus, C-terminus); printed as pVLDLFRELLEELKQKLK*; also: * mark of unstated meaning) [Peptide 214]
57 | PLLELLKELLEELKQKLK* (not fully specified (N-terminus, C-terminus); printed as PLLELLKELLEELKQKLK*) [Peptide 206]
25 | PVLDEFREKLWEXLEALKQKLK (PVLDEFREKLWE[Aib]LEALKQKLK; not fully specified (C-terminus)) [Peptide 43]
50 | PVFELFENLLERLLDALQKKLK [Peptide 152]
33 | XVLDLFRELLNELLEALKQKLK ([Aib]VLDLFRELLNELLEALKQKLK; not fully specified (C-terminus)) [Peptide 32]
100 | PVLDLFKELLEELKQKLK* (not fully specified (N-terminus, C-terminus); printed as PVLDLFKELLEELKQKLK*) [Peptide 192]
23 | ~VLDLFRELLNEGLEALKQKLK [Peptide 47]
13 | PVLDEFRKKLNEXLEALKQKLK (PVLDEFRKKLNE[Aib]LEALKQKLK; not fully specified (C-terminus)) [Peptide 69]
30 | PVLEFFENLLERLLDALQKKLK [Peptide 157]
8 | PVLDLFREGWEELKQKLK [Peptide 224]
81 | PVLDLFRELLEELKNKLK* (not fully specified (N-terminus, C-terminus); printed as PVLDLFRELLEELKNKLK*) [Peptide 196]
22 | PVLELFLNLLEKLLDALQKKLK [Peptide 166]
0 | PVLDLFRELLEEGKQKLK* (not fully specified (N-terminus, C-terminus); printed as PVLDLFRELLEEGKQKLK*) [Peptide 229]
48 | PALELFKDLLEELRQRLK* (not fully specified (N-terminus, C-terminus); printed as PALELFKDLLEELRQRLK*) [Peptide 208]
57 | PLLELFENLLERLLDALQKKLK [Peptide 150]
72 | PVLDLFKELLQELLEALKQKLK [Peptide 11]
0 | PVLDEFREKLNEELEAXKQKLK (PVLDEFREKLNEELEA[Aib]KQKLK; not fully specified (C-terminus)) [Peptide 119]
